The target of assay [1] is 23 amino acid synthetic M2e peptide of A/Fort Worth/1/50 (H1N1) (influenza A virus A/Fort Worth/1/50 (H1N1)). The assay is described as follows: ELISA on coated 23mer M2e peptide. (In an ELISA, binding on a coated surface is turned into a signal by an enzyme label.)
Assay [2] concerns the target truncated M2 peptide SEQ ID NO 306. The assay is described as follows: peptide ELISA, 5 µg/mL.
Assay [3] has as its target truncated M2 peptide SEQ ID NO 298. The assay is described as follows: peptide ELISA, 5 µg/mL.
Assay [4] addresses truncated M2 peptide SEQ ID NO 309. The assay is described as follows: peptide ELISA, 5 µg/mL.
The target of assay [5] is truncated M2 peptide SEQ ID NO 308. The assay is described as follows: peptide ELISA, 5 µg/mL.
Assay [6] deals with M2 peptide SEQ ID NO 273. The assay is described as follows: peptide ELISA, 5 µg/mL.
Assay [7] has as its target truncated M2 peptide SEQ ID NO 305. The assay is described as follows: peptide ELISA, 5 µg/mL.
Assay [8] addresses truncated M2 peptide SEQ ID NO 310. The assay is described as follows: peptide ELISA, 5 µg/mL.
Assay [9] concerns the target truncated M2 peptide SEQ ID NO 301. The assay is described as follows: peptide ELISA, 5 µg/mL.
Assay [10] addresses truncated M2 peptide SEQ ID NO 302. The assay is described as follows: peptide ELISA, 5 µg/mL.
Assay [11] concerns the target truncated M2 peptide SEQ ID NO 311. The assay is described as follows: peptide ELISA, 5 µg/mL.
For assay [12], the target named is truncated M2 peptide SEQ ID NO 315. The assay is described as follows: peptide ELISA, 5 µg/mL.
The target in assay [13] is truncated M2 peptide SEQ ID NO 304. The assay is described as follows: peptide ELISA, 5 µg/mL.
The target of assay [14] is truncated M2 peptide SEQ ID NO 312. The assay is described as follows: peptide ELISA, 5 µg/mL.
Assay [15] addresses truncated M2 peptide SEQ ID NO 307. The assay is described as follows: peptide ELISA, 5 µg/mL.
Assay [16] addresses truncated M2 peptide SEQ ID NO 299. The assay is described as follows: peptide ELISA, 5 µg/mL.
The target in assay [17] is truncated M2 peptide SEQ ID NO 271. The assay is described as follows: peptide ELISA, 5 µg/mL.
For assay [18], the target named is truncated M2 peptide SEQ ID NO 300. The assay is described as follows: peptide ELISA, 5 µg/mL.
Assay [19] deals with truncated M2 peptide SEQ ID NO 314. The assay is described as follows: peptide ELISA, 5 µg/mL.
In assay [20] the target is truncated M2 peptide SEQ ID NO 313. The assay is described as follows: peptide ELISA, 5 µg/mL.
The target in assay [21] is truncated M2 peptide SEQ ID NO 316. The assay is described as follows: peptide ELISA, 5 µg/mL.
The target of assay [22] is truncated M2 peptide SEQ ID NO 303. The assay is described as follows: peptide ELISA, 5 µg/mL.
For assay [23], the target named is truncated M2 peptide SEQ ID NO 309. The assay is described as follows: peptide ELISA, 5 µg/mL. The source holds these as a separate data set.
The target of assay [24] is truncated M2 peptide SEQ ID NO 298. The assay is described as follows: peptide ELISA, 5 µg/mL. The source holds these as a separate data set.
Assay [25] has as its target truncated M2 peptide SEQ ID NO 299. The assay is described as follows: peptide ELISA, 5 µg/mL. The source holds these as a separate data set.
Assay [26] addresses T1, A.Hong Kong.1180.99 H3N2.
T1 M2: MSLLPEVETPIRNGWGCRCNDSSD
The assay is described as follows: FACS, transfected 293 cells. On the technique in general: In flow cytometry, cells or beads pass a laser one at a time.

The target of assay [27] is T2, A.Hong Kong.1144.99.H3N2.
T2 M2: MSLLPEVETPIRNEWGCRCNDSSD
The assay is described as follows: FACS, transfected 293 cells.

Assay [28] deals with T3, A.Hong Kong.1.68.H3N2.
T3 M2: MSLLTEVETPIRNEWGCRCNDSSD
The assay is described as follows: FACS, transfected 293 cells, 1 µg/mL.

Assay [29] deals with T4, A.Caracas.1.71.H3N2.
T4 M2: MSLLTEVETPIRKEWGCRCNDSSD
The assay is described as follows: FACS, transfected 293 cells, 1 µg/mL.

For assay [30], the target named is T3, A.Hong Kong.1.68.H3N2. The assay is described as follows: FACS, transfected HEK293, 1 µg/ml [D00006 FIG. 3C-1].
Assay [31] addresses T4, A.Caracas.1.71.H3N2. Described as above.

Read-outs that look alike come from different tables or passages of the source.

What is called EC50 is the concentration at which the effect is half-maximal. Higher therefore signals a less potent agent. For “14C2 (chimeric mouse V-region/human IgG1 kappa 14C2 antibody)”, the EC50 in [1] stood at 0.01 µg/mL. The ELISA A450 in assay [2] was determined as 0.27; in [3], 3.94; in assay [4] it was 3.97; in assay [5], 3.9; in assay [6], 3.85; in assay [7], 0.22. The ELISA A450 in [8] was found to be 3.97; in [9], 0.19; in assay [10] it was 0.23; in assay [11], 0.18; in [12] it was 0.15; in assay [13], 0.23. In addition, the ELISA A450 in assay [14] was determined as 0.2; in assay [15], 3.99; in assay [16], 3.95; in assay [17], 0.21; in [18], 0.15; in assay [19], 0.17. Further, the ELISA A450 came out at 0.21 in [20], 0.14 in assay [21] and 0.19 in assay [22].

B1: 23K12 (antibody, V domains shown)
VH: EVQLVESGGGLVQPGGSLRISCAASGFTVSSNYMSWVRQAPGKGLEWVSVIYSGGSTYYADSVKGRFSFSRDNSKNTVFLQMNSLRAEDTAVYYCARCLSRMRGYGLDVWGQGTTVTVS
VL: DIQMTQSPSSLSASVGDRVTITCRTSQSISSYLNWYQQKPGKAPKLLIYAASSLQSGVPSRFSGSGSGTDFTLTISGLQPEDFATYYCQQSYSMPAFGQGTKLEIK
Regarding B1, the ELISA A450 in assay [23] was determined as 0.3; in assay [24] it was 0.21; in [25] it was 0.21. The binding result is listed as “no binding (tested: 1 µg/mL)” in assay [26], “no binding (tested: 1 µg/mL)” in [27], “binds” in [28] and “binds” in assay [29].

B2: 8I10 (antibody, V domains shown)
VH: QVQLQESGPGLVKPSETLSLTCTVSGSSISNYYWSWIRQSPGKGLEWIGFIYYGGNTKYNPSLKSRVTISQDTSKSQVSLTMSSVTAAESAVYFCARASCSGGYCILDYWGQGTLVTVS
VL: DIQMTQSPSSLSASVGDRVTITCRASQNIYKYLNWYQQRPGKAPKGLISAASGLQSGVPSRFSGSGSGTDFTLTITSLQPEDFATYYCQQSYSPPLTFGGGTRVEIK
With B2, the binding result is reported as “no binding (tested: 1 µg/mL)” in assay [26], “no binding (tested: 1 µg/mL)” in assay [27], “binds” in assay [30] and “binds” in [31].

Source of the values: US20120315277A1, “Compositions and Methods for the Therapy and Diagnosis of Influenza” (priority 2011, published 2012).
